This experiment has as its target TNFR (human (endogenous in primary CD4+ T cells)) (UniProt P19438).
UniProt P19438, sequence (P19438 30-455): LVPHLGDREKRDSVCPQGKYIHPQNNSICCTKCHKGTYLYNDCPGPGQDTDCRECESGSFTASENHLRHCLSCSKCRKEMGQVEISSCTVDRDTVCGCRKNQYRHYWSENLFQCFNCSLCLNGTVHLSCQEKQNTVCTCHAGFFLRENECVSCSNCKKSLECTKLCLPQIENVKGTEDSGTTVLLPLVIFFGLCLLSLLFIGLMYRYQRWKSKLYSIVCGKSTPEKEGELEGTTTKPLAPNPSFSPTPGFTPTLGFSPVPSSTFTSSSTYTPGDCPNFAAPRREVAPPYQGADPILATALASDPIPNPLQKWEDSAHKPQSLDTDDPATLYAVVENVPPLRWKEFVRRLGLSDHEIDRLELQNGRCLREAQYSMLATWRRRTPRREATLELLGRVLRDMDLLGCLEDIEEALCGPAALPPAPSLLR

“tumor necrosis factor alpha (TNF-α) (from UniProt P01375 1-233) (ligand)” displayed an other (% necroptosis) of 0.3.

The record behind these values is publication PMC3979729.
